± gives the standard deviation of the averaged measurements.
system: Saccharomyces cerevisiae; assay: protein stability index of tFT-peptide fusion (C-terminal peptide) (PSI (0-1 scale)); higher = more stable (slower turnover); conditions: genetic background: wild type; temperature: 30 C
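Note: PSI is a weighted mean of sequencing reads over stability bins, variants kept only with over 10 reads, mCherry proximal and sfGFP distal, peptide attached via GGGS linker.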

Row | Sequence | protein stability index
1 | VVAFSLLSGFLV | 0.636 ± 0.04
2 | VVALHYNYFSRL | 0.613 ± 0.09
3 | VVDSGLFLAASR | 0.643 ± 0.08
4 | VVDWRRAAKREG | 0.685 ± 0.051
5 | VVFLWGVFGGSI | 0.688 ± 0.055
6 | VVGAGGLCNMDV | 0.635 ± 0.029
7 | VVGDGVWCLSVG | 0.721 ± 0.046
8 | VVGRLERRLREQ | 0.674 ± 0.017
9 | VVLGFGPRFRVV | 0.584 ± 0.018
10 | VVLGLWGLCCGC | 0.527 ± 0.029
11 | VVLVGVVGGMVG | 0.639 ± 0.018
12 | VVRGKRRVRWLR | 0.625 ± 0.049
13 | VVSFGRIGGVGR | 0.675 ± 0.027
14 | VVSIIQDITLIS | 0.7094 ± 0.0034
15 | VVTEKLKRAARA | 0.669 ± 0.021
16 | VVVGRWSVLSSV | 0.522 ± 0.017
17 | VVVLGVGGVGWW | 0.704 ± 0.019
18 | VVWKRALWGEGL | 0.791 ± 0.073
19 | VWGGYGQFYGWK | 0.606 ± 0.049
20 | VWLGEYGVGCSV | 0.655 ± 0.048
21 | VWRVGRARGQMG | 0.6953 ± 0.0017
22 | VWSVDVSGCVVR | 0.641 ± 0.031
23 | VWVWHGAVLMGG | 0.527 ± 0.017

Row | Sequence | protein stability index
24 | VYASMFRAAWPF | 0.746 ± 0.076
25 | VYMAGSFSRLFQ | 0.723 ± 0.034
26 | VYSDSCLLRKTT | 0.695 ± 0.02
27 | VYTEFWERQGLL | 0.796 ± 0.051
28 | WACGYLGSTILS | 0.643 ± 0.067
29 | WAGSGCECTGGG | 0.705 ± 0.0031
30 | WAGVTLRLRSAV | 0.682 ± 0.055
31 | WANGEFSLGCGG | 0.712 ± 0.017
32 | WCGWGGVACLLL | 0.681 ± 0.023
33 | WCLNMLLIPSMY | 0.605 ± 0.021
34 | WCPGAGGAVVVV | 0.658 ± 0.073
35 | WCWVGRFVGLVR | 0.447 ± 0.11
36 | WDEDGIFDAGGA | 0.6 ± 0.041
37 | WDHGDHTAMVSI | 0.683 ± 0.019
38 | WEAPCGGTLVGR | 0.697 ± 0.048
39 | WEWFKWRDHNRY | 0.803 ± 0.037
40 | WFCFGSFILCLL | 0.492 ± 0.028
41 | WFLLTSSTSRPP | 0.737 ± 0.059
42 | WGAAGRAGTERH | 0.682 ± 0.029
43 | WGCVGVVGLFSG | 0.656 ± 0.047
44 | WGEKTRKVQGCG | 0.695 ± 0.066
45 | WGGGGGRKVSVG | 0.67 ± 0.082
46 | WGGGGGWSGACL | 0.6909 ± 0.0059

Row | Sequence | protein stability index
47 | WGGGGLRGGWDG | 0.738 ± 0.03
48 | WGGGGLVVFGWK | 0.698 ± 0.011
49 | WGGGGVRGGMGG | 0.781 ± 0.043
50 | WGGGVLRRRVGA | 0.752 ± 0.055
51 | WGGLSRCAGVWL | 0.632 ± 0.034
52 | WGGSGGREPGGS | 0.753 ± 0.066
53 | WGGYSLKFRTRR | 0.705 ± 0.0025
54 | WGLGGVCAVRGS | 0.575 ± 0.094
55 | WGLGLLGGCWGV | 0.679 ± 0.09
56 | WGPGGVAWGAWW | 0.7837 ± 0.0022
57 | WGPPPPYSPFSL | 0.713 ± 0.0089
58 | WGPVPWWFGWMG | 0.678 ± 0.027
59 | WGRCLGWAGPAG | 0.788 ± 0.11
60 | WGRCVRGGRPWG | 0.567 ± 0.021
61 | WGRGLESVKGGG | 0.727 ± 0.018
62 | WGTSGAMRGTEG | 0.683 ± 0.022
63 | WGVGWGMVEGWR | 0.701 ± 0.019
64 | WGVSVVEGGRSG | 0.736 ± 0.093
65 | WGWGGGRDGCGV | 0.643 ± 0.1
66 | WGWGGVRGGMGG | 0.796 ± 0.08
67 | WGWVLVGVGGLV | 0.576 ± 0.091
68 | WHEHGGVGTYFI | 0.6743 ± 0.0043
69 | WIFHHSKTTLAP | 0.7158 ± 0.0052

Row | Sequence | protein stability index
70 | WKGEMRDDGGRR | 0.687 ± 0.041
71 | WKGEREKQGKEG | 0.589 ± 0.084
72 | WKKDTKTKKKKN | 0.695 ± 0.034
73 | WKKSEKTEHEQI | 0.653 ± 0.12
74 | WKQKRGTHNIKD | 0.722 ± 0.011
75 | WLFLCWCFFCCL | 0.597 ± 0.12
76 | WLGLGGARGCML | 0.745 ± 0.057
77 | WLNMKFRTLCGS | 0.634 ± 0.038
78 | WLPRPHPPLRPA | 0.724 ± 0.08
79 | WLRPRSFSVVAT | 0.52821 ± 0.00016
80 | WLSMLLTVAPHH | 0.64278 ± 0.00026
81 | WLTCICSSVAPL | 0.698 ± 0.042
82 | WLVGEWPGRWGR | 0.728 ± 0.037
83 | WMSFLARVVTFE | 0.716 ± 0.025
84 | WMSVCCRSALVD | 0.65 ± 0.011
85 | WMTFKKLQCNRT | 0.682 ± 0.027
86 | WNGIDQSMSGRR | 0.694 ± 0.099
87 | WPHAPSLPRFSG | 0.69 ± 0.018
88 | WPLSYLPLSSPP | 0.701 ± 0.01
89 | WPRVCPFSLYDA | 0.723 ± 0.012
90 | WRQRLKTNNITT | 0.733 ± 0.018
91 | WRRPKAGRHAPC | 0.685 ± 0.0065
92 | WRSGRGRCAVSQ | 0.721 ± 0.045

Row | Sequence | protein stability index
93 | WRTPVCSPFLLG | 0.691 ± 0.0053
94 | WSCTPRTPPPPR | 0.7925 ± 0.002
95 | WSESVKEASFTS | 0.756 ± 0.028
96 | WSFGRWGGAGAR | 0.629 ± 0.044
97 | WSFSSGCWGYVG | 0.6281 ± 0.0036
98 | WSGGAGGGGRLG | 0.645 ± 0.088
99 | WSIWRLPSFEWV | 0.741 ± 0.04
100 | WSKEQRRGGCGQ | 0.714 ± 0.015
101 | WSLIARYSPCHF | 0.67 ± 0.027
102 | WSRGGVLGVCCG | 0.536 ± 0.031
103 | WSSRGAIDSARH | 0.762 ± 0.019
104 | WSTGEKMALHGR | 0.787 ± 0.12
105 | WSTVCKIAGAID | 0.706 ± 0.028
106 | WTSPRISPRSPL | 0.726 ± 0.014
107 | WVEACVCRGFVG | 0.698 ± 0.059
108 | WVGAVVGAGGRW | 0.614 ± 0.089
109 | WVGFRTFGVWGV | 0.707 ± 0.063
110 | WVGGDINFWWGG | 0.747 ± 0.12
111 | WVGGVACGAGGG | 0.62 ± 0.069
112 | WVKPVRAWTILR | 0.605 ± 0.025
113 | WVPGPLEPSLVL | 0.774 ± 0.0096
114 | WVPLGPFCLPLF | 0.724 ± 0.1
115 | WVPPPPYSPFSL | 0.695 ± 0.027

Row | Sequence | protein stability index
116 | WVRIGVEFGWGE | 0.689 ± 0.11
117 | WVRQYFRGLQLR | 0.595 ± 0.074
118 | WVSWGCCSFLLT | 0.616 ± 0.0092
119 | WVVSLTNSLAHV | 0.581 ± 0.013
120 | WVVSRGPFAVGP | 0.68 ± 0.021
121 | WWEVSFRVGAVR | 0.648 ± 0.025
122 | WWGRWPGLAGGR | 0.716 ± 0.068
123 | WWKLSGTGWGTL | 0.73 ± 0.022
124 | WWLRLVLCGWEW | 0.721 ± 0.074
125 | WWSFVGACDGVG | 0.549 ± 0.012
126 | WWWGGVRGGMGG | 0.749 ± 0.026
127 | YADAGRVSLWIA | 0.5512 ± 0.0054
128 | YAERNKKTLKDT | 0.638 ± 0.011
129 | YALWRFRSLADV | 0.695 ± 0.1
130 | YCGGRCGGWEIG | 0.698 ± 0.012
131 | YCSITGIRLLVG | 0.579 ± 0.023
132 | YDAGWVDVLLVI | 0.6419 ± 0.0064
133 | YDGGLAALQVLL | 0.68 ± 0.051
134 | YDIAVDAEIDPY | 0.685 ± 0.0081
135 | YEKWIKKCNKEE | 0.689 ± 0.068
136 | YEQLSGHPPVVR | 0.7236 ± 0.0014
137 | YFGGMGPRGRER | 0.683 ± 0.016
138 | YFSQPLGPSPLL | 0.812 ± 0.074

Row | Sequence | protein stability index
139 | YFWTHLISIPDV | 0.676 ± 0.062
140 | YGCSRALGCMGG | 0.596 ± 0.14
141 | YGFLFRFLSPNP | 0.6788 ± 0.0038
142 | YGGLFFLVSLPP | 0.566 ± 0.0082
143 | YGIILPIRVSGF | 0.631 ± 0.035
144 | YGSGSDGRGGPG | 0.662 ± 0.0077
145 | YGVCFKAFQFKL | 0.676 ± 0.056
146 | YHALNSLHPPSP | 0.69 ± 0.027
147 | YHNFLPRPPRKR | 0.662 ± 0.077
148 | YIIEGKRKYNRI | 0.682 ± 0.029
149 | YILLGEFAGVFP | 0.689 ± 0.17
150 | YINIKKKKINKT | 0.688 ± 0.039
151 | YINVEPRITKNT | 0.709 ± 0.0085
152 | YIPPGNTTVPSC | 0.694 ± 0.038
153 | YKPKGSKKFKNK | 0.624 ± 0.029
154 | YKSELSIPYAPV | 0.687 ± 0.015
155 | YLLDTLTAAREI | 0.673 ± 0.016
156 | YLLLVPDTRTLL | 0.683 ± 0.0079
157 | YLLYSDSLCFVT | 0.659 ± 0.03
158 | YLPDPVVSLAHS | 0.656 ± 0.063
159 | YLYLKSRDTFLN | 0.7094 ± 0.0013
160 | YMGDFRPAFAVT | 0.64 ± 0.046

From the supplement of paper PMC10724198
